The values below come from article PMC8960874.

The target of this assay is Clone 16 (Clone 6-KiH-Clone 2) bispecific antibody (mouse | human) [IgG part: P01857]. The assay is described as follows: SPR. The conditions noted are these: domain or fragment.

One may read the Kd as the concentration at which binding is half-saturated. Higher therefore signals weaker binding. The koff is a measure of how fast the partners let go of each other. High values mean fast dissociation, low ones slow dissociation.

For the substance “SARS-CoV-2 spike receptor binding domain (RBD) protein with a C-terminal hexahistidine tag (from UniProt P0DTC2 319-541)”, the dissociation constant (Kd) is 2.95 nM and the off-rate (koff) came out at 0.00461 s⁻¹.
